# Values joined by “and” are separate entries in the source; they are usually repeats but may differ in a detail not shown here. Equal values may be shown once.
# B1: 5F11-hIgG1 (antibody, V domains shown)
# VH: EVQLVESGGGLVQPGRSLKLSCAASGFSFSNYGMAWVRQAATKGLEWVASISTGGGNTYYRDSVKGRFIVSRDNAKNTQYLQMDSLRSEDTATYYCTRHDRGGLYWGQGVMVTVSS
# VL: DIVMTQAPLSVSVTPGESASISCRSSKSLLHSNGITYVYWYFQKPGKSPQVLIYRMSNLASGVPDRFSGSGSETDFTLKISRVEAEDVGIYHCGQLLENPYTFGAGTELELKR
# notes: Control antibody; VH and VL from WO 2019154890 A1 recombined into human IgG1 CH and CL expression vectors; also called h5F11-hIgG1; positive control antibody 5F11
# Columns and labels:
# [1] = target: T1, human GPRC5D (human, UniProt Q9NZD1 1-345); assay: FACS, MolP-8 cells
# T1 construct: the cell line is named under assay; also called hGPRC5D; G protein coupled receptor C5 family subtype D
# [2] = target: T1, human GPRC5D; assay: FACS, NCI-H929 cells
# Protocol: (§1) The desired cells were scale-up cultured in a T-75 cell culture flask to the logarithmic growth phase. NCI-H929, MolP-8 and RPMI-8226 cells were collected and washed with PBS buffer 2 times. After counting the cells, the cell pellet was resuspended with [PBS+2% (w/v) BSA] blocking solution to 2×10⁶ cells/ml, and added to a 96-well FACS reaction plate at 50 μl/well, and then the chimeric antibody test sample was added at 50 μl/well, and incubated on ice for 1 h. […] The obtained mixture was centrifuged and washed 3 times with a PBS buffer, and FACS (FACS CantoII, purchased from BD Company) was used for detection and result analysis. Data analysis was performed by software (Flowjo) to obtain the mean fluorescence intensity (MFI) of the cells. Then a software (GraphPad Prism8) was used for analysis, the analysis results are shown in Table 9 and FIGS. 9A-9C, 10A-10C and 11A-11C.
# [3] = target: T1, human GPRC5D; assay: FACS, RPMI-8226 cells
# Protocol: as §1
# [4] = target: hGPRC5D-LVP protein (human) (UniProt Q9NZD1); assay: competitive ELISA, competitor Biotin-5F11; antibody at 0 nM
# [5] = target: hGPRC5D-LVP protein (human) (UniProt Q9NZD1); assay: competitive ELISA, competitor Biotin-5F11; antibody at 0.07 nM
# [6] = target: hGPRC5D-LVP protein (human) (UniProt Q9NZD1); assay: competitive ELISA, competitor Biotin-5F11; antibody at 0.21 nM
# [7] = target: hGPRC5D-LVP protein (human) (UniProt Q9NZD1); assay: competitive ELISA, competitor Biotin-5F11; antibody at 0.62 nM
# [8] = target: hGPRC5D-LVP protein (human) (UniProt Q9NZD1); assay: competitive ELISA, competitor Biotin-5F11; antibody at 1.85 nM
# [9] = target: hGPRC5D-LVP protein (human) (UniProt Q9NZD1); assay: competitive ELISA, competitor Biotin-5F11; antibody at 5.56 nM
# [10] = target: hGPRC5D-LVP protein (human) (UniProt Q9NZD1); assay: competitive ELISA, competitor Biotin-5F11; antibody at 16.67 nM
# [11] = target: hGPRC5D-LVP protein (human) (UniProt Q9NZD1); assay: competitive ELISA, competitor Biotin-5F11; antibody at 50.00 nM
# [12] = target: T1, human GPRC5D; assay: FACS, CHOK1-hGPRC5D high pool
# [13] = target: T1, human GPRC5D; assay: FACS, HEK293T-hGPRC5D high pool
# [14] = target: monkey GPRC5D (monkey (cyno)); assay: FACS, CHOK1-cynoGPRC5D high pool
# [15] = target: monkey GPRC5D (monkey (cyno)); assay: FACS, HEK293T-cynoGPRC5D high pool
# Chain of hGPRC5D-LVP protein (human) (Q9NZD1 whole entry): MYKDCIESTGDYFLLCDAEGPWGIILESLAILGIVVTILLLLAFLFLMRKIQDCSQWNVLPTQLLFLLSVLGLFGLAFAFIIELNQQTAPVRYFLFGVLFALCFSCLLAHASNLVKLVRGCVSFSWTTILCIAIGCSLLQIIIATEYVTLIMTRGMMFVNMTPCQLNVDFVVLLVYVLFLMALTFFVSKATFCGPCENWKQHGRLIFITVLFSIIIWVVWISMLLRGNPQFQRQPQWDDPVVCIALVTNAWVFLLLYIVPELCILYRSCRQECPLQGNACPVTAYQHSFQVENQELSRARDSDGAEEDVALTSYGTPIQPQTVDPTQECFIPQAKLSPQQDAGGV
# T1 sequence (Q9NZD1 whole entry): as above
# Chain of monkey GPRC5D (monkey (cyno)) (Q9NZD1 other isoform, or with tags, fused parts or gaps): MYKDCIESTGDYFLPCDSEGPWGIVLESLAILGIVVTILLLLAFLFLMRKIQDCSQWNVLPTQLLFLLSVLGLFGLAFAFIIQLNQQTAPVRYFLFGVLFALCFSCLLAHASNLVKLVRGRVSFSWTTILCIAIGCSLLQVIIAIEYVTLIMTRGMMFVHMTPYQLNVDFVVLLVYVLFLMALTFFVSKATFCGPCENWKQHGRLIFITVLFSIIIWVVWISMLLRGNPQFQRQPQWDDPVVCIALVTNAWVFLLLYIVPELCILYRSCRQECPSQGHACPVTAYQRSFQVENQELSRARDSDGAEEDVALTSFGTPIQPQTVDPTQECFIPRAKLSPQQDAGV
molecule,measurement,setting,value
anti-hel-hIgG1 (antibody),Maximum mean fluorescence intensity,[1],81 and 103 and 90
same,Maximum mean fluorescence intensity,[2],85 and 74
same,Maximum mean fluorescence intensity,[3],108 and 106 and 85
same,OD450,[4],1.22 and 0.57 and 0.94
same,OD450,[5],1.24 and 0.62 and 0.92
same,OD450,[6],1.27 and 0.68 and 0.87
same,OD450,[7],1.2 and 0.67 and 0.88
same,OD450,[8],1.16 and 0.7 and 0.89
same,OD450,[9],1.14 and 0.69 and 0.87
same,OD450,[10],1.15 and 0.65 and 0.9
same,OD450,[11],1.16 and 0.63 and 0.89
IgG subtype control (antibody),Mean fluorescence intensity,[12],56.4
same,Cell mean fluorescence density,[13],18.9
same,Mean fluorescence density,[14],52.9
same,Mean fluorescence density,[15],18.2
B1,EC50,[2],1.25 nM and 3.5 nM and 1.97 nM
same,EC50,[3],3.17 nM and 2.86 nM and 6.48 nM
